The values that follow come from article PMC9249340 (FEBS Open Bio, 2022).

Data set [1] deals with the molecule itself. In words: crystal structure; wild-type GDAP1Δ295-358, new crystal form, +8 °C, 200 mM NH4 formate, 25% PEG3350, 8.64 mg/mL protein.
Data set [2] concerns the molecule itself. The data set can be described thus: SEC-SAXS; 50 µL at 8.5-10 mg/mL on a BioSEC3-300 column, 25 mM HEPES pH 7.5, 300 mM NaCl, +15 °C; monomer to dimer.

Numbering of substitutions follows the chain as printed. Numbers in names are those of the source.

B1: GDAP1Δ295‐358 wild type (domain or fragment, human, UniProt Q8TB36 1-294, looked up)
chain: MAERQEEQRGSPPLRAEGKADAEVKLILYHWTHSFSSQKVRLVIAEKALKCEEHDVSLPLSEHNEPWFMRLNSTGEVPVLIHGENIICEATQIIDYLEQTFLDERTPRLMPDKESMYYPRVQHYRELLDSLPMDAYTHGCILHPELTVDSMIPAYATTRIRSQIGNTESELKKLAEENPDLQEAYIAKQKRLKSKLLDHDNVKYLKKILDELEKVLDQVETELQRRNEETPEEGQQPWLCGESFTLADVSLAVTLHRLKFLGFARRNWGNGKRPNLETYYERVLKRKTFNKVLG
notes: GDAP1, human; printed as GDAP1Δ295-358 (residues 295-358 deleted); also called wtGDAP1Δ295‐358; GDAPΔ295‐358; source: E. coli BL21(DE3), purified (Ni-NTA, TEV cleavage, second Ni-NTA, SEC on Superdex 200); not shown: His6, N-terminal, cleaved
On to B1, for which the binding result in data set [1] is given as “binds”.

B2: GDAP1Δ303‐358 R120W (domain or fragment, human, UniProt Q8TB36 1-302, looked up)
chain: MAERQEEQRGSPPLRAEGKADAEVKLILYHWTHSFSSQKVRLVIAEKALKCEEHDVSLPLSEHNEPWFMRLNSTGEVPVLIHGENIICEATQIIDYLEQTFLDERTPRLMPDKESMYYPWVQHYRELLDSLPMDAYTHGCILHPELTVDSMIPAYATTRIRSQIGNTESELKKLAEENPDLQEAYIAKQKRLKSKLLDHDNVKYLKKILDELEKVLDQVETELQRRNEETPEEGQQPWLCGESFTLADVSLAVTLHRLKFLGFARRNWGNGKRPNLETYYERVLKRKTFNKVLGHVNNILIS
notes: GDAP1, human; printed as GDAP1Δ303-358 (residues 303-358 deleted) with the CMT2K-linked mutation R120W; Disease mutation that occurs in patients; also called R120W GDAP1; GDAP1∆303‐358 R120W; source: E. coli BL21(DE3), purified (Ni-NTA, TEV cleavage, second Ni-NTA, SEC); not shown: His6, N-terminal, cleaved
With B2, the “stoichiometry N” value in data set [2] is 2.

B3: GDAP1Δ303‐358 H123R (domain or fragment, human, UniProt Q8TB36 1-302, looked up)
chain: B2 chain with W120R, H123R
notes: GDAP1, human; printed as GDAP1Δ303-358 (residues 303-358 deleted) with the Finnish founder CMT2K mutation H123R; Disease mutation that occurs in patients; also called H123R GDAP1; GDAP1∆303‐358 H123R; source: E. coli BL21(DE3), purified (Ni-NTA, TEV cleavage, second Ni-NTA, SEC); not shown: His6, N-terminal, cleaved
For the protein B3, the “stoichiometry N” value in data set [2] was 2.
